Residue numbers refer to the chain shown, from its start. Values joined by “and” are separate entries in the source; they are usually repeats but may differ in a detail not shown here. Equal values may be shown once.

For assay [1], the target named is Vδ1 TCR on human Vδ1-positive γδ T cells (human), A0A1B0. Nature of the assay: cell-based or functional assay.
Assay [2] has the same target.

Sequence of Vδ1 TCR on human Vδ1-positive γδ T cells (human), A0A1B0 (A0A1B0 entry or part of it mutant limits assumed): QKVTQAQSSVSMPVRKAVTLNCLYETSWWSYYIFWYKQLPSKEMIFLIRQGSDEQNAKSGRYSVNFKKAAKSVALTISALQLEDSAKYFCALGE

B1: ADT1-7-20 (antibody, IgG1, V domains shown)
VH: EVQLVESGGGLVKPGGSLRLSCAASGFTFSDYYMSWIRQAPGKGLEWVSYISSSGSTIYYADSVKGRFTISRDNAKNSLYLQMNSLRAEDTAVYYCARVDYQEAFDIWGQGTLVTVSS
VL: DIQMTQSPSSLSASVGDRVTIACRAGQSIGTYLNWYQQKPGKAPKLLIYVASSLQSGVPSRFSGSGSGTEFTLTISSLQPEDFATYYCQQSYSGLDTFGRGTKVEIK
For the molecule B1, in assay [1], the IC50 TCR DR (no THP-1) was 0.16 nM and 0.164 nM; the IC90 TCR DR (noTHP-1) is 1 nM and 1.04 nM.

B2: ADT1-7-3 (antibody, IgG1, V domains shown)
VH: B1 VH with D100S, Q102A
VL: B1 VL
With B2, in assay [1], the IC50 TCR DR (no THP-1) was 0.16 nM and 0.161 nM; the IC90 TCR DR (noTHP-1) worked out at 0.79 nM.

B3: ADT1-7-61 (antibody, IgG1, V domains shown)
VH: B1 VH with V99D, Q102D, E103D
VL: B1 VL with Y92A, G94E, D96L
In the case of B3, in assay [1], the IC50 TCR DR (no THP-1) was 6.3 nM and 6.26 nM; the IC90 TCR DR (noTHP-1) amounted to 1700 nM.

B4: ADT1-4-6/ADT3-2 (bispecific antibody)
heavy: EVQLQQSGPGLVKPSQTLSLTCAISGDSVSSKSAAWNWIRQSPSRGLEWLGRTYYRSKWSTDYAASVKSRITINPDTSKNQLSLQLNSVTPEDTAVYYCARTWAGYPDVWGQGTLVTVSSASTKGPSVFPLAPSSKSTSGGTAALGCLVKDYFPEPVTVSWNSGALTSGVHTFPAVLQSSGLYSLSSVVTVPSSSLGTQTYICNVNHKPSNTKVDKKVEPKSCDKTHTCPPCPAPELAGAPSVFLFPPKPKDTLMISRTPEVTCVVVDVSHEDPEVKFNWYVDGVEVHNAKTKPREEQYNSTYRVVSVLTVLHQDWLNGKEYKCKVSNKALPAPIEKTISKAKGQPREPQVYTLPPSRDELEEGPVSLTCLVKGFYPSDIAVEWESTYGPENNYKTTPPVLDSDGSFFLYSKLTVSYWRWYKGNVFSCSVMHEALHNHYTQKSLSLSPG
VL: DIQMTQSPPALSASVGDRVTITCRASQDINDWLAWYQHKPGKAPKLLIYDASSLESGVPLRFSGSGSGTEFTLTISSLQPDDFATYYCQQKYKTPQVTFGQGTRLEIK
In assay [2], B4 registered a Vδ1 TCR down-regulation (A375 co-culture): % change (at saturation) of 81.9%, a Vδ1 TCR down-regulation (A375 co-culture): EC50 of 0.00606 nM and a Vδ1 TCR down-regulation (A375 co-culture): EC95 of 0.0836 nM.

B5: ADT1-4-138/ADT3-2 (bispecific antibody)
heavy: B4 heavy with G105D, P107V
VL: B4 VL with L60S, K91R, K93S, P95D
For the molecule B5, in assay [2], the Vδ1 TCR down-regulation (A375 co-culture): % change (at saturation) is 75.3%, the Vδ1 TCR down-regulation (A375 co-culture): EC50 came to 0.00798 nM and the Vδ1 TCR down-regulation (A375 co-culture): EC95 came to 0.496 nM.

B6: ADT1-4 (parental) (antibody, IgG1, V domains shown)
VH: QVQLQQSGPGLVKPSQTLSLTCAISGDSVSSKSAAWNWIRQSPSRGLEWLGRTYYRSKWSTDYAASVKSRITINPDTSKNQLSLQLNSVTPEDTAVYYCARTWSGYVDVWGQGTLVTVSS
VL: ASDIQMTQSPPALSASVGDRVTITCRASQDINDWLAWYQHKPGKAPKLLIYDASSLESGVPSRFSGSGSGTEFTLTISSLQPDDFATYYCQQSYSTPQVTFGQGTRLEIK
The molecule B6 came in with an IC50 TCR downregulation (soluble assay, added in solution) in assay [1] of 38.3 nM.

B7: ADT1-4-53 (antibody, IgG1, V domains shown)
VH: B6 VH with Q1E, A34V, S104A, G105D
VL: B4 VL with K93S, V97L
Consider B7, for which, in assay [1], the IC50 TCR DR (no THP-1) was 0.25 nM and 0.254 nM; the IC90 TCR DR (noTHP-1) was 0.7 nM and 0.698 nM.

B8: ADT1-4-86 (antibody, IgG1, V domains shown)
VH: B6 VH with Q1E, A34V, S104L, Y106N
VL: B4 VL with K93S, T94E
In the case of B8, in assay [1], the IC50 TCR DR (no THP-1) is 0.31 nM and 0.307 nM; the IC90 TCR DR (noTHP-1) was determined as 1 nM.

B9: ADT1-4-2 (antibody, IgG1, V domains shown)
VH: B6 VH with Q1E, S104V, V109R
VL: B4 VL with K93S, T94A
For B9, in assay [1], the IC50 TCR DR (no THP-1) amounted to 0.31 nM; the IC90 TCR DR (noTHP-1) is 0.83 nM and 0.834 nM.

B10: ADT1-4-31 (antibody, IgG1, V domains shown)
VH: B6 VH with Q1E, S104V, V107A
VL: B4 VL with K91R, K93S, Q96P
In the case of B10, in assay [1], the IC50 TCR DR (no THP-1) is 0.24 nM and 0.245 nM; the IC90 TCR DR (noTHP-1) is 1.1 nM and 1.09 nM.

B11: ADT1-4-19 (antibody, IgG1, V domains shown)
VH: B6 VH with Q1E, S104V, V109R
VL: B4 VL with K93S, Q96K
With B11, in assay [1], the IC50 TCR DR (no THP-1) is 0.37 nM and 0.367 nM; the IC90 TCR DR (noTHP-1) was 1.6 nM and 1.58 nM.

B12: ADT1-4-1 (antibody, IgG1, V domains shown)
VH: B6 VH with Q1E, S104V, V107A
VL: B4 VL with K91R, K93S, Q96I
In assay [1], B12 returned an IC50 TCR DR (no THP-1) of 0.36 nM and an IC90 TCR DR (noTHP-1) of 0.67 nM.

B13: ADT1-4-21 (antibody, IgG1, V domains shown)
VH: B6 VH with Q1E, A34V, S104A, G105D
VL: B4 VL with K93S, Q96W
For B13, in assay [1], the IC50 TCR DR (no THP-1) is 0.27 nM and 0.266 nM; the IC90 TCR DR (noTHP-1) is 0.89 nM and 0.892 nM.

B14: ADT1-4-138 (antibody, IgG1, V domains shown)
VH: B6 VH with Q1E, S104A, G105D
VL: B4 VL with L60S, K91R, K93S, P95D
Regarding B14, in assay [1], the IC50 TCR DR (no THP-1) was 8.4 nM and 8.38 nM; the IC90 TCR DR (noTHP-1) is 38 nM and 38.3 nM.

B15: ADT1-4-112 (antibody, IgG1, V domains shown)
VH: B6 VH with Q1E, S104V, V109Y
VL: B4 VL with K93S, T94Q
As for B15, in assay [1], the IC50 TCR DR (no THP-1) is 0.3 nM and 0.295 nM; the IC90 TCR DR (noTHP-1) is 1.1 nM and 1.09 nM.

B16: ADT1-4-6 (antibody, IgG1, V domains shown)
VH: B6 VH with Q1E, S104A, V107P
VL: B4 VL
B16: in assay [1], the IC50 TCR DR (no THP-1) is 0.48 nM; the IC90 TCR DR (noTHP-1) was 1.9 nM and 1.91 nM.

B17: ADT1-4-143 (antibody, IgG1, V domains shown)
VH: B6 VH with Q1E, Q5L, S104V, V107A
VL: B4 VL with K91R, K93S, P95H, E106V
Consider B17, for which, in assay [1], the IC50 TCR DR (no THP-1) is 0.31 nM and 0.313 nM; the IC90 TCR DR (noTHP-1) is 0.85 nM and 0.853 nM.

For the origin of these results see patent US20240132599A1.
